According to patent US20260001928A1 (CORTERIA PHARMACEUTICALS, priority 2022, published 2026):
*1 amine or outer side, *2 acyl side, *3 side chain or, on linkers, in order; H or OH if unused. Primed or numbered codes have the meaning given here. Where no end group is shown, it is not given here. Side-chain parts run from the residue outwards. [ ]: non-standard residue; d: D form. The star is where a group is joined. Thp′ = 4-amino-tetrahydro-2H-pyran-4-yl-acetic acid, O=C(CC1(N[*:1])CCOCC1)[*:2]; ThP = 4-amino-tetrahydro-2H-pyran-4-yl-acetic acid, O=C(CC1(N[*:1])CCOCC1)[*:2]; C18 diacid = O=C(O)CCCCCCCCCCCCCCCCC(=O)*; C16 diacid = O=C(O)CCCCCCCCCCCCCCC(=O)*; γGlu = O=C(O)[C@H](CCC(=O)[*:2])N[*:1]; NMeI = CC[C@H](C)[C@H](NC)C(=O)O; Ac6c = NC1(C(=O)O)CCCCC1; Aib = CC(C)(N)C(=O)O

T1: CRF1R receptor (UniProt P34998 24-415, limits assumed)
T1 sequence (looked up): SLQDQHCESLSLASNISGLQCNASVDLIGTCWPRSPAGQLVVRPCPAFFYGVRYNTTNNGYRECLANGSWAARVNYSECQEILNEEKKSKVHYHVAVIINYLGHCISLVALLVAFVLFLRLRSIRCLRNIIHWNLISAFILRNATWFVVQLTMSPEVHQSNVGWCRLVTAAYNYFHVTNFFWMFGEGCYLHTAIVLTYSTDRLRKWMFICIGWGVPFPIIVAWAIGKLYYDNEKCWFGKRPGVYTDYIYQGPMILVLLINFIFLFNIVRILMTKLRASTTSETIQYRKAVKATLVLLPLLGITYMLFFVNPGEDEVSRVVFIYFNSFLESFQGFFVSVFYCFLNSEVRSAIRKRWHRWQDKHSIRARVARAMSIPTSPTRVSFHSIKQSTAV

B1: SEQ ID NO 133 (peptide)
peptide: Ac-IVLSLD[dV]PIKLK([γGlu-C18 diacid])KILLEQEKQKKQREQAETN[ThP]QILAQV-NH2
SMILES: CC[C@H](C)[C@H](NC(C)=O)C(=O)N[C@H](C(=O)N[C@@H](CC(C)C)C(=O)N[C@@H](CO)C(=O)N[C@@H](CC(C)C)C(=O)N[C@@H](CC(=O)O)C(=O)N[C@@H](C(=O)N1CCC[C@H]1C(=O)N[C@H](C(=O)N[C@@H](CCCCN)C(=O)N[C@@H](CC(C)C)C(=O)N[C@@H](CCCCNC(=O)CC[C@H](NC(=O)CCCCCCCCCCCCCCCCC(=O)O)C(=O)O)C(=O)N[C@@H](CCCCN)C(=O)N[C@H](C(=O)N[C@@H](CC(C)C)C(=O)N[C@@H](CC(C)C)C(=O)N[C@@H](CCC(=O)O)C(=O)N[C@@H](CCC(N)=O)C(=O)N[C@@H](CCC(=O)O)C(=O)N[C@@H](CCCCN)C(=O)N[C@@H](CCC(N)=O)C(=O)N[C@@H](CCCCN)C(=O)N[C@@H](CCCCN)C(=O)N[C@@H](CCC(N)=O)C(=O)N[C@@H](CCCNC(=N)N)C(=O)N[C@@H](CCC(=O)O)C(=O)N[C@@H](CCC(N)=O)C(=O)N[C@@H](C)C(=O)N[C@@H](CCC(=O)O)C(=O)N[C@H](C(=O)N[C@@H](CC(N)=O)C(=O)NC1(CC(=O)N[C@@H](CCC(N)=O)C(=O)N[C@H](C(=O)N[C@@H](CC(C)C)C(=O)N[C@@H](C)C(=O)N[C@@H](CCC(N)=O)C(=O)N[C@H](C(N)=O)C(C)C)[C@@H](C)CC)CCOCC1)[C@@H](C)O)[C@@H](C)CC)[C@@H](C)CC)C(C)C)C(C)C
B2: SEQ ID NO 134 (peptide)
peptide: Ac-IVLSLD[dV]PIKLK([γGlu-C18 diacid])KILLEQEKQKKQREQAETN[Ac6c]QILAQV-NH2
SMILES: CC[C@H](C)[C@H](NC(C)=O)C(=O)N[C@H](C(=O)N[C@@H](CC(C)C)C(=O)N[C@@H](CO)C(=O)N[C@@H](CC(C)C)C(=O)N[C@@H](CC(=O)O)C(=O)N[C@@H](C(=O)N1CCC[C@H]1C(=O)N[C@H](C(=O)N[C@@H](CCCCN)C(=O)N[C@@H](CC(C)C)C(=O)N[C@@H](CCCCNC(=O)CC[C@H](NC(=O)CCCCCCCCCCCCCCCCC(=O)O)C(=O)O)C(=O)N[C@@H](CCCCN)C(=O)N[C@H](C(=O)N[C@@H](CC(C)C)C(=O)N[C@@H](CC(C)C)C(=O)N[C@@H](CCC(=O)O)C(=O)N[C@@H](CCC(N)=O)C(=O)N[C@@H](CCC(=O)O)C(=O)N[C@@H](CCCCN)C(=O)N[C@@H](CCC(N)=O)C(=O)N[C@@H](CCCCN)C(=O)N[C@@H](CCCCN)C(=O)N[C@@H](CCC(N)=O)C(=O)N[C@@H](CCCNC(=N)N)C(=O)N[C@@H](CCC(=O)O)C(=O)N[C@@H](CCC(N)=O)C(=O)N[C@@H](C)C(=O)N[C@@H](CCC(=O)O)C(=O)N[C@H](C(=O)N[C@@H](CC(N)=O)C(=O)NC1(C(=O)N[C@@H](CCC(N)=O)C(=O)N[C@H](C(=O)N[C@@H](CC(C)C)C(=O)N[C@@H](C)C(=O)N[C@@H](CCC(N)=O)C(=O)N[C@H](C(N)=O)C(C)C)[C@@H](C)CC)CCCCC1)[C@@H](C)O)[C@@H](C)CC)[C@@H](C)CC)C(C)C)C(C)C
B3: SEQ ID NO 24 (peptide)
peptide: [NMeI]VLSLD[dV]PIKLK([γGlu-C18 diacid])QILLKQERQKKQREQAEKNAQILEQV-NH2
modifications: N-terminus assumed
SMILES: CC[C@H](C)[C@H](NC)C(=O)N[C@H](C(=O)N[C@@H](CC(C)C)C(=O)N[C@@H](CO)C(=O)N[C@@H](CC(C)C)C(=O)N[C@@H](CC(=O)O)C(=O)N[C@@H](C(=O)N1CCC[C@H]1C(=O)N[C@H](C(=O)N[C@@H](CCCCN)C(=O)N[C@@H](CC(C)C)C(=O)N[C@@H](CCCCNC(=O)CC[C@H](NC(=O)CCCCCCCCCCCCCCCCC(=O)O)C(=O)O)C(=O)N[C@@H](CCC(N)=O)C(=O)N[C@H](C(=O)N[C@@H](CC(C)C)C(=O)N[C@@H](CC(C)C)C(=O)N[C@@H](CCCCN)C(=O)N[C@@H](CCC(N)=O)C(=O)N[C@@H](CCC(=O)O)C(=O)N[C@@H](CCCNC(=N)N)C(=O)N[C@@H](CCC(N)=O)C(=O)N[C@@H](CCCCN)C(=O)N[C@@H](CCCCN)C(=O)N[C@@H](CCC(N)=O)C(=O)N[C@@H](CCCNC(=N)N)C(=O)N[C@@H](CCC(=O)O)C(=O)N[C@@H](CCC(N)=O)C(=O)N[C@@H](C)C(=O)N[C@@H](CCC(=O)O)C(=O)N[C@@H](CCCCN)C(=O)N[C@@H](CC(N)=O)C(=O)N[C@@H](C)C(=O)N[C@@H](CCC(N)=O)C(=O)N[C@H](C(=O)N[C@@H](CC(C)C)C(=O)N[C@@H](CCC(=O)O)C(=O)N[C@@H](CCC(N)=O)C(=O)N[C@H](C(N)=O)C(C)C)[C@@H](C)CC)[C@@H](C)CC)[C@@H](C)CC)C(C)C)C(C)C
B4: SEQ ID NO 142 (peptide)
peptide: [NMeI]VLSLD[dV]PIKLK([γGlu-C18 diacid])KILLEQEKQKKQREQAETNEQILAQV-NH2
modifications: N-terminus assumed
SMILES: CC[C@H](C)[C@H](NC)C(=O)N[C@H](C(=O)N[C@@H](CC(C)C)C(=O)N[C@@H](CO)C(=O)N[C@@H](CC(C)C)C(=O)N[C@@H](CC(=O)O)C(=O)N[C@@H](C(=O)N1CCC[C@H]1C(=O)N[C@H](C(=O)N[C@@H](CCCCN)C(=O)N[C@@H](CC(C)C)C(=O)N[C@@H](CCCCNC(=O)CC[C@H](NC(=O)CCCCCCCCCCCCCCCCC(=O)O)C(=O)O)C(=O)N[C@@H](CCCCN)C(=O)N[C@H](C(=O)N[C@@H](CC(C)C)C(=O)N[C@@H](CC(C)C)C(=O)N[C@@H](CCC(=O)O)C(=O)N[C@@H](CCC(N)=O)C(=O)N[C@@H](CCC(=O)O)C(=O)N[C@@H](CCCCN)C(=O)N[C@@H](CCC(N)=O)C(=O)N[C@@H](CCCCN)C(=O)N[C@@H](CCCCN)C(=O)N[C@@H](CCC(N)=O)C(=O)N[C@@H](CCCNC(=N)N)C(=O)N[C@@H](CCC(=O)O)C(=O)N[C@@H](CCC(N)=O)C(=O)N[C@@H](C)C(=O)N[C@@H](CCC(=O)O)C(=O)N[C@H](C(=O)N[C@@H](CC(N)=O)C(=O)N[C@@H](CCC(=O)O)C(=O)N[C@@H](CCC(N)=O)C(=O)N[C@H](C(=O)N[C@@H](CC(C)C)C(=O)N[C@@H](C)C(=O)N[C@@H](CCC(N)=O)C(=O)N[C@H](C(N)=O)C(C)C)[C@@H](C)CC)[C@@H](C)O)[C@@H](C)CC)[C@@H](C)CC)C(C)C)C(C)C
B5: SEQ ID NO 59 (peptide)
peptide: Ac-IVLSLD[dV]PIKLK([γGlu-C16 diacid])KILLEQEKQKKQREQAETN[Ac6c]QILAQV-NH2
SMILES: CC[C@H](C)[C@H](NC(C)=O)C(=O)N[C@H](C(=O)N[C@@H](CC(C)C)C(=O)N[C@@H](CO)C(=O)N[C@@H](CC(C)C)C(=O)N[C@@H](CC(=O)O)C(=O)N[C@@H](C(=O)N1CCC[C@H]1C(=O)N[C@H](C(=O)N[C@@H](CCCCN)C(=O)N[C@@H](CC(C)C)C(=O)N[C@@H](CCCCNC(=O)CC[C@H](NC(=O)CCCCCCCCCCCCCCC(=O)O)C(=O)O)C(=O)N[C@@H](CCCCN)C(=O)N[C@H](C(=O)N[C@@H](CC(C)C)C(=O)N[C@@H](CC(C)C)C(=O)N[C@@H](CCC(=O)O)C(=O)N[C@@H](CCC(N)=O)C(=O)N[C@@H](CCC(=O)O)C(=O)N[C@@H](CCCCN)C(=O)N[C@@H](CCC(N)=O)C(=O)N[C@@H](CCCCN)C(=O)N[C@@H](CCCCN)C(=O)N[C@@H](CCC(N)=O)C(=O)N[C@@H](CCCNC(=N)N)C(=O)N[C@@H](CCC(=O)O)C(=O)N[C@@H](CCC(N)=O)C(=O)N[C@@H](C)C(=O)N[C@@H](CCC(=O)O)C(=O)N[C@H](C(=O)N[C@@H](CC(N)=O)C(=O)NC1(C(=O)N[C@@H](CCC(N)=O)C(=O)N[C@H](C(=O)N[C@@H](CC(C)C)C(=O)N[C@@H](C)C(=O)N[C@@H](CCC(N)=O)C(=O)N[C@H](C(N)=O)C(C)C)[C@@H](C)CC)CCCCC1)[C@@H](C)O)[C@@H](C)CC)[C@@H](C)CC)C(C)C)C(C)C
B6: SEQ ID NO 23 (peptide)
peptide: [NMeI]VLSLD[dV]PIKLK([γGlu-C18 diacid])QILLKQERQKKQREQAEKN[Aib]QILEQV-NH2
modifications: N-terminus assumed
SMILES: CC[C@H](C)[C@H](NC)C(=O)N[C@H](C(=O)N[C@@H](CC(C)C)C(=O)N[C@@H](CO)C(=O)N[C@@H](CC(C)C)C(=O)N[C@@H](CC(=O)O)C(=O)N[C@@H](C(=O)N1CCC[C@H]1C(=O)N[C@H](C(=O)N[C@@H](CCCCN)C(=O)N[C@@H](CC(C)C)C(=O)N[C@@H](CCCCNC(=O)CC[C@H](NC(=O)CCCCCCCCCCCCCCCCC(=O)O)C(=O)O)C(=O)N[C@@H](CCC(N)=O)C(=O)N[C@H](C(=O)N[C@@H](CC(C)C)C(=O)N[C@@H](CC(C)C)C(=O)N[C@@H](CCCCN)C(=O)N[C@@H](CCC(N)=O)C(=O)N[C@@H](CCC(=O)O)C(=O)N[C@@H](CCCNC(=N)N)C(=O)N[C@@H](CCC(N)=O)C(=O)N[C@@H](CCCCN)C(=O)N[C@@H](CCCCN)C(=O)N[C@@H](CCC(N)=O)C(=O)N[C@@H](CCCNC(=N)N)C(=O)N[C@@H](CCC(=O)O)C(=O)N[C@@H](CCC(N)=O)C(=O)N[C@@H](C)C(=O)N[C@@H](CCC(=O)O)C(=O)N[C@@H](CCCCN)C(=O)N[C@@H](CC(N)=O)C(=O)NC(C)(C)C(=O)N[C@@H](CCC(N)=O)C(=O)N[C@H](C(=O)N[C@@H](CC(C)C)C(=O)N[C@@H](CCC(=O)O)C(=O)N[C@@H](CCC(N)=O)C(=O)N[C@H](C(N)=O)C(C)C)[C@@H](C)CC)[C@@H](C)CC)[C@@H](C)CC)C(C)C)C(C)C

Biological target: human corticotropin-releasing factor 2a (CRF2a receptor) (human), Q13324
Assay: cell-based or functional assay

Sequence of human corticotropin-releasing factor 2a (CRF2a receptor) (human), Q13324 (Q13324 20-411): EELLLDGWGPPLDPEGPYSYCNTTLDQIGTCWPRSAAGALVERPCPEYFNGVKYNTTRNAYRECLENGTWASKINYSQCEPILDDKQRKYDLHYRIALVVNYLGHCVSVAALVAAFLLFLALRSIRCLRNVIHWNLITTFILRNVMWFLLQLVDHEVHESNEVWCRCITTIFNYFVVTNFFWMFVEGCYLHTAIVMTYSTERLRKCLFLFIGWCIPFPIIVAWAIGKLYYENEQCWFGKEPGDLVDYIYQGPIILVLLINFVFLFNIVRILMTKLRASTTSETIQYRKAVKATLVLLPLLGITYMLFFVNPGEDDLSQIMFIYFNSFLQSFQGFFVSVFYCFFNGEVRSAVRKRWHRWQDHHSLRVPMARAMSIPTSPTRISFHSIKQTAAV

| EC50 [nM] (cAMP) | Binder |
| --- | --- |
| 0.16 | B1 |
| 0.5 | B2 |
| 0.04 | B3 |
| 0.07 | B4 |
| 0.81 | B5 |
| 0.33 | B6 |
| 0.41 | Ac-IVLSLD[dV]PIKLK([γGlu-C16 diacid])KILLEQEKQKKQREQAETN[Thp′]QILAQV-NH2 [SEQ ID NO 58] |

Biological target: T1, CRF1R receptor
Assay: cell-based or functional assay

| EC50 [nM] | Emax (% I) [%] | Binder |
| --- | --- | --- |
| > 250 | 11 | B1 |
|  | 10 | B2 |
|  | 37 | B3 |
|  | 3 | B4 |
|  | 9 | B5 |
|  | 35 | B6 |
| > 250 | 6 | Ac-IVLSLD[dV]PIKLK([γGlu-C16 diacid])KILLEQEKQKKQREQAETN[Thp′]QILAQV-NH2 [SEQ ID NO 58] |
